Measurements: patent publication US20150258192A1, “COMPOSITIONS AND METHODS FOR PREVENTING OR TREATING CHRONIC LUNG ALLOGRAFT DYSFUNCTION (CLAD) AND IDIOPATHIC PULMONARY FIBROSIS (IPF)” (priority 2014, published 2015)
No end group written: not given here.

How the values were obtained:
Experiment in all cases: Kinase Profiling Assay
Format in all cases: biochemical
Conditions in all cases: peptide 100 μM
[1] = target: T1, MSSK1(h) (Homo sapiens, UniProt Q9UPE1)
T1 construct: purchased Millipore
Method: (§1) Every kinase activity measurement was conducted in duplicate.
(§2) Specifically, in these assays, a positively charged substrate is phosphorylated with a radiolabeled phosphate group from an ATP if the kinase is not inhibited by an inhibitor peptide. The positively charged substrate then is attracted to a negatively charged filter membrane, quantified with a scintillation counter, and compared to a 100% activity control.
(§3) In addition to determining the IC50 of the compound, the specificity of MK2 inhibitory peptides was assessed by examining activities of all 266 human kinases available for testing in the Millipore kinase profiling service (Table 1).

[2] = target: T2, EphA1(h) (Homo sapiens, UniProt P21709)
T2 sequence (P21709 26-976): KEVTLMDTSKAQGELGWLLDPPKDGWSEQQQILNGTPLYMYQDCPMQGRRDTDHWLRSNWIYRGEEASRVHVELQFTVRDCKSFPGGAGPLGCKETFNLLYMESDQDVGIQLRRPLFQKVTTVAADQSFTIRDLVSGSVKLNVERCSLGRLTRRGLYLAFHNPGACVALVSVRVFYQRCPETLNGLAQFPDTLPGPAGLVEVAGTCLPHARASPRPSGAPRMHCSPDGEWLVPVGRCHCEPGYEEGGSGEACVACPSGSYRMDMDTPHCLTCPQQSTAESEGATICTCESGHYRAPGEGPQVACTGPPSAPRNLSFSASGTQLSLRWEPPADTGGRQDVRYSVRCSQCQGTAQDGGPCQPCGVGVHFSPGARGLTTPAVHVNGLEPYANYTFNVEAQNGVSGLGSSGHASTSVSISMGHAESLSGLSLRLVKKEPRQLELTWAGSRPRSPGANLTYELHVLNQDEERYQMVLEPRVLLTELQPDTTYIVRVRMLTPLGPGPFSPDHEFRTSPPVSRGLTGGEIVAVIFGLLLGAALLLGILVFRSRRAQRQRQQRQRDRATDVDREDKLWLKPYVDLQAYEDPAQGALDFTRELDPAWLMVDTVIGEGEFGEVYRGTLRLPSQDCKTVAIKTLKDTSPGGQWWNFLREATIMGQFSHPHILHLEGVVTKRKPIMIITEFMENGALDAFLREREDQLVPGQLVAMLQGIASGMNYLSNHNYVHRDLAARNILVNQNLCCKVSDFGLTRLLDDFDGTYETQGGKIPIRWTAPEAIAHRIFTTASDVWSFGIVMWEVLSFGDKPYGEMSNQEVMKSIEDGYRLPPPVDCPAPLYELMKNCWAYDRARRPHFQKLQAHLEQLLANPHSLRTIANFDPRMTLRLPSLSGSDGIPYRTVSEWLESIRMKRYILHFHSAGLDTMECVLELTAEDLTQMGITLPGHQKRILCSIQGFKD
Method: as §1, §2, §3

[3] = target: VRK2(h) (Homo sapiens, UniProt Q86Y07)
Method: as §1, §2, §3

[4] = target: T3, HIPK2(h) (Homo sapiens, UniProt Q9H2X6)
T3 construct: purchased Millipore
Method: as §1, §2, §3

[5] = target: T4, Tie2(h) (Homo sapiens, UniProt Q02763)
T4 construct: purchased Millipore
Method: as §1, §2, §3

[6] = target: T5, ULK2(h) (Homo sapiens, UniProt Q8IYT8)
T5 sequence (Q8IYT8 1-1036): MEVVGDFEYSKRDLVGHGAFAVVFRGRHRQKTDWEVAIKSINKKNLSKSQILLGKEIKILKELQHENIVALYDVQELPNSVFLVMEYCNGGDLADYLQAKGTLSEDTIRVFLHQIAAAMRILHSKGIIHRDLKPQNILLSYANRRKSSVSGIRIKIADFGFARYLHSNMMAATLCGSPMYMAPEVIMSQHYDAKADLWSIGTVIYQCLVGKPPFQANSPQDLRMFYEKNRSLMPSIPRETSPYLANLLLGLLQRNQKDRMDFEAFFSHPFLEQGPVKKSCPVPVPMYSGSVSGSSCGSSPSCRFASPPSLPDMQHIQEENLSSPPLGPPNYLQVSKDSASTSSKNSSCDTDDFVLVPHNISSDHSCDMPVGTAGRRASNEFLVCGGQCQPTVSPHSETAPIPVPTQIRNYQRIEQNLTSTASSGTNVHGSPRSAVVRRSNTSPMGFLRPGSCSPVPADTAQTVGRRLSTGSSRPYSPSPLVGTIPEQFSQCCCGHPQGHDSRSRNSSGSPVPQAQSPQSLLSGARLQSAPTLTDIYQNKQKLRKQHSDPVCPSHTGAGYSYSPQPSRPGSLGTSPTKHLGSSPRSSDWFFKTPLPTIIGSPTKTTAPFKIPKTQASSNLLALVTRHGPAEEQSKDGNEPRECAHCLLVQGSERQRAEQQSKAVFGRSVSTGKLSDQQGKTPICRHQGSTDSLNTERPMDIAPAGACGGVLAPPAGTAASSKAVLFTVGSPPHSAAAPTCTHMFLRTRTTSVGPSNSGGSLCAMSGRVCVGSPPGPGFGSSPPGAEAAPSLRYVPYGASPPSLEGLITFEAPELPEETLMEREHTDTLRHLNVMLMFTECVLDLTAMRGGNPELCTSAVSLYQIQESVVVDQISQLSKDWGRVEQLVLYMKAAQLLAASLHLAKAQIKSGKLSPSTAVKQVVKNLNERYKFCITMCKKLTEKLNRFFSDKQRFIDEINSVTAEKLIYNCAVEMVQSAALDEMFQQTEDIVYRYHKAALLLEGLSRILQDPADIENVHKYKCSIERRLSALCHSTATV
Method: as §1, §2, §3

[7] = target: T6, JAK2(h) (Homo sapiens, UniProt O60674)
T6 construct: purchased Millipore
Method: as §1, §2, §3

[8] = target: CLK3(h) (Homo sapiens, UniProt P49761)
Method: as §1, §2, §3

[9] = target: T7, MRCKα(h) (Homo sapiens, UniProt Q5VT25)
T7 construct: purchased Millipore
Method: as §1, §2, §3

T1 sequence (Q9UPE1 whole entry): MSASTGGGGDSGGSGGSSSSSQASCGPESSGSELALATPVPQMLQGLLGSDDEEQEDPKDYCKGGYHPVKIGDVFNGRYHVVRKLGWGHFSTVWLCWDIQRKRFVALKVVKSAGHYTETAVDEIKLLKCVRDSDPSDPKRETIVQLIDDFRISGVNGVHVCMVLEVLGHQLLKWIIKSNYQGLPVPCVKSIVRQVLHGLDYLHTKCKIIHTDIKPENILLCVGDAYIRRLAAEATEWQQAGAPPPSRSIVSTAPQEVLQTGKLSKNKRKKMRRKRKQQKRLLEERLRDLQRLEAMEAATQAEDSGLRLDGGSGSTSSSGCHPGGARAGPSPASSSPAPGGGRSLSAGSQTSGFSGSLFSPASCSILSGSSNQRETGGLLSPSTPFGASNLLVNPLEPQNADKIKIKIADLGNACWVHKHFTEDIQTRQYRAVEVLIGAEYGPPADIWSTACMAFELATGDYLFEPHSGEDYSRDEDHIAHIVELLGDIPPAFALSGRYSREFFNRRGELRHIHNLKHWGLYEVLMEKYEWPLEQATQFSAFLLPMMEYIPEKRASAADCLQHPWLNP
T3 sequence (Q9H2X6 whole entry): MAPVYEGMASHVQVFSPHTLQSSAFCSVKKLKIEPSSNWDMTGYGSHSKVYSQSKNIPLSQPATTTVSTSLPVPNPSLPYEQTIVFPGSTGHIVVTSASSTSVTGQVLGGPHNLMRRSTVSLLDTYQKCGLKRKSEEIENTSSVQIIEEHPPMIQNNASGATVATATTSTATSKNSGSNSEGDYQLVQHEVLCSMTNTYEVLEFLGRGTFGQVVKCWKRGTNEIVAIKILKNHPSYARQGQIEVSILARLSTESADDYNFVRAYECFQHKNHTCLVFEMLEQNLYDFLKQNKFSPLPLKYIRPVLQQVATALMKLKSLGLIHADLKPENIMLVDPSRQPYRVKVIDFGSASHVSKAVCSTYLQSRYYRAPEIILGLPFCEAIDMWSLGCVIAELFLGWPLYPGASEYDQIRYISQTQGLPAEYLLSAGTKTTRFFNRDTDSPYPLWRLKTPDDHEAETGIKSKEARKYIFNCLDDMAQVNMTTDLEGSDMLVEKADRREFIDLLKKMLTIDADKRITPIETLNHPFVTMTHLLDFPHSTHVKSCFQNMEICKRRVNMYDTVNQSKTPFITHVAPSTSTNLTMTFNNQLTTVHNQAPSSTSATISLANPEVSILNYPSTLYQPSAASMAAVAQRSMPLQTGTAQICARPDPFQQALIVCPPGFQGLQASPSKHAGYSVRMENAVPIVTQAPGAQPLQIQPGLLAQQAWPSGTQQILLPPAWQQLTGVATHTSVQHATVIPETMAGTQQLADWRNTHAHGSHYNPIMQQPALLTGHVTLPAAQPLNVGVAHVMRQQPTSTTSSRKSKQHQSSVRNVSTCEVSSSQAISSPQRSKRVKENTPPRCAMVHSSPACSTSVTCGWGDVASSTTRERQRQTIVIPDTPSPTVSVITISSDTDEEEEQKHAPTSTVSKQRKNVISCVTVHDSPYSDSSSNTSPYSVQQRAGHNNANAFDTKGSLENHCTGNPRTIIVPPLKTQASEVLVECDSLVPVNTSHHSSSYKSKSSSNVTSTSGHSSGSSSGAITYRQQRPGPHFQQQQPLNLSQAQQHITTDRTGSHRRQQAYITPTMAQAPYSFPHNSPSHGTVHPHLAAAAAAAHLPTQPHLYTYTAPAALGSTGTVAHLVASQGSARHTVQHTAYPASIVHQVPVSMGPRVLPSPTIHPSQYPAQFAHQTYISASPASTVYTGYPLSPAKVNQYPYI
Sequence of VRK2(h) (Q86Y07 whole entry): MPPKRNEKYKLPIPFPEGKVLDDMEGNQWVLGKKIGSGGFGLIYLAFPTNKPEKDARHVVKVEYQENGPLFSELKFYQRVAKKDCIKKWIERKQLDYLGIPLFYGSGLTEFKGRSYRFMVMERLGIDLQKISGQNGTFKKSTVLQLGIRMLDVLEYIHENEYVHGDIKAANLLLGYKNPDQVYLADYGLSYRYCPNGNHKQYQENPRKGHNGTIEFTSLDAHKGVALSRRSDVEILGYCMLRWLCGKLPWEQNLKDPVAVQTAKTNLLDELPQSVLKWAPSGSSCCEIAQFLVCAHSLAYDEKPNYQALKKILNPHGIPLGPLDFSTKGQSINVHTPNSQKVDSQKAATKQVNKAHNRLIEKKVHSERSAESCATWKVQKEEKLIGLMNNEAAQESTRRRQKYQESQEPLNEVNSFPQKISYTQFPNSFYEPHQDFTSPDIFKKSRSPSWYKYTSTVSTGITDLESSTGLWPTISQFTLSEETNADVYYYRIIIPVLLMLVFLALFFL
Sequence of CLK3(h) (P49761 whole entry): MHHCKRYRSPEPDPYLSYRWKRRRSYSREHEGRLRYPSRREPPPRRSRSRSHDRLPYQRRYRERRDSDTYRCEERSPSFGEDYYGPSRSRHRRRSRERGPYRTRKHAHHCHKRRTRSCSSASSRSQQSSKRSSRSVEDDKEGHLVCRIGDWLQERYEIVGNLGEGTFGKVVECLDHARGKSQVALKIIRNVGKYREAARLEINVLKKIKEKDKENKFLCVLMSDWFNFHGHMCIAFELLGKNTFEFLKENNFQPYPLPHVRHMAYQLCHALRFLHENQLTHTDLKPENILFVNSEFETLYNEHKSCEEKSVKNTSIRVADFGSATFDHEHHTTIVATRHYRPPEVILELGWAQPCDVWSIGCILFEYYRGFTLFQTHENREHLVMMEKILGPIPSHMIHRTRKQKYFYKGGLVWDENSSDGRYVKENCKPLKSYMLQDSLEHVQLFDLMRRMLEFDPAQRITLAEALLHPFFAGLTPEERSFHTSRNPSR
T6 sequence (O60674 whole entry): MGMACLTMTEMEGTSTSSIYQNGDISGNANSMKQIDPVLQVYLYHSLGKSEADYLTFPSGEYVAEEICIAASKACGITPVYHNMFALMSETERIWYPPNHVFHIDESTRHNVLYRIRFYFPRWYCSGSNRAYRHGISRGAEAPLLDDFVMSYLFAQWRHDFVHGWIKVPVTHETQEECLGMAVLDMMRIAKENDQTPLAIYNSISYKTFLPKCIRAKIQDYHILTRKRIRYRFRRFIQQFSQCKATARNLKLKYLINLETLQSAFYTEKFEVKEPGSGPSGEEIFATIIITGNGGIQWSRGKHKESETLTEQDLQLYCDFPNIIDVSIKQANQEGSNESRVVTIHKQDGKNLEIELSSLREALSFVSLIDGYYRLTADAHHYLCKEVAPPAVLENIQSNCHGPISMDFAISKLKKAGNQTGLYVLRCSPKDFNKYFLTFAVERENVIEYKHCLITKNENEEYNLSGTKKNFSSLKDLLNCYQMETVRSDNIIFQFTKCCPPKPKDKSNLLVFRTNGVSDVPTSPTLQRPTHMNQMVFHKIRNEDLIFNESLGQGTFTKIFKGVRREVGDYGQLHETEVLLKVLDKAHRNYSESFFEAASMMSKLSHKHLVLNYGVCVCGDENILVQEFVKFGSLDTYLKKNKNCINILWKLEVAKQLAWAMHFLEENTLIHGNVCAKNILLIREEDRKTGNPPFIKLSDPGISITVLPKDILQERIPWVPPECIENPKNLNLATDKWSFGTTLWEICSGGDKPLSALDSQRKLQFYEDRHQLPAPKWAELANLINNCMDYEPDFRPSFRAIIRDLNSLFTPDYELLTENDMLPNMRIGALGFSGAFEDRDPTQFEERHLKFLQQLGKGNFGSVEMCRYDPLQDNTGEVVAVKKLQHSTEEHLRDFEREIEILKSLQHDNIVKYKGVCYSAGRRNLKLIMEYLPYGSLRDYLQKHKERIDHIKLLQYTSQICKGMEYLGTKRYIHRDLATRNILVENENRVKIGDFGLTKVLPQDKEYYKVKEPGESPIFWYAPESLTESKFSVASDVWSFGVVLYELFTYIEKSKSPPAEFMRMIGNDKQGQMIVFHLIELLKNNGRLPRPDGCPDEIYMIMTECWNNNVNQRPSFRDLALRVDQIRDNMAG
T4 sequence (Q02763 23-1124): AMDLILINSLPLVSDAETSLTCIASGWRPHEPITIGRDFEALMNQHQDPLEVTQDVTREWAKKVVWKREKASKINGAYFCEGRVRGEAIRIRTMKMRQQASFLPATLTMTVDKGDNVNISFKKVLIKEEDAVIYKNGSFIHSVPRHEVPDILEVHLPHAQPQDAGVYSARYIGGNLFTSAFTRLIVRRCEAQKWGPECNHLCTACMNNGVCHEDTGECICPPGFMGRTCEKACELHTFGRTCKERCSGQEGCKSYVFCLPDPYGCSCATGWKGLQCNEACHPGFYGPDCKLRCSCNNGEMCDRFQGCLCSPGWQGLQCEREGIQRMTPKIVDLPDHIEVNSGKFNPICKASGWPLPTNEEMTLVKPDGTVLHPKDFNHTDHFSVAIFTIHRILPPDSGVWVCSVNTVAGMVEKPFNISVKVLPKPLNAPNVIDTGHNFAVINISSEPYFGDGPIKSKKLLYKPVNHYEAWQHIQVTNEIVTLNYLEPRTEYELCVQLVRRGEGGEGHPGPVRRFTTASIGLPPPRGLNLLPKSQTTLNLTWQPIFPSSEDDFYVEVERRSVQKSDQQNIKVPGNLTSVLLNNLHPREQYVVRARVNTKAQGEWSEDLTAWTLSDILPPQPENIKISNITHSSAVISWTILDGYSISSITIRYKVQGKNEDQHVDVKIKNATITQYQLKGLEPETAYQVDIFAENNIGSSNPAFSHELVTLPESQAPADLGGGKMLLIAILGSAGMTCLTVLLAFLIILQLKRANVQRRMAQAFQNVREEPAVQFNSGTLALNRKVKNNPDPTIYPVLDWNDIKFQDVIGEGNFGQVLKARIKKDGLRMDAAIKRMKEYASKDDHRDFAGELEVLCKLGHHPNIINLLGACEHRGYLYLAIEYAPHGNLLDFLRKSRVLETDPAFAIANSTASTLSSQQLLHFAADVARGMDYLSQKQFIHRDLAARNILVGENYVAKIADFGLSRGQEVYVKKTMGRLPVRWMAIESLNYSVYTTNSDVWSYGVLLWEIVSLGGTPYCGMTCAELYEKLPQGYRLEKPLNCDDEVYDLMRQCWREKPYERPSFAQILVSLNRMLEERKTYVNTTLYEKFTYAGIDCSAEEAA

Sequence: FAKLAARLYRKALARQLGVAA [MMI-0300]
- % activity [1]: 77%
- % activity [2]: 73%
- % activity [3]: 161%
- % activity [4]: 73%
- % activity [5]: 26%
- % activity [6]: 122%
- % activity [7]: 133%
- % activity [8]: 61%

Sequence: HRRIKAWLKKIKALARQLGVAA (Mammal) [MMI-0500]
- % activity [9]: 5%
- % activity [1]: 22%
- % activity [2]: 40%
- % activity [3]: 169%
- % activity [4]: 38%
- % activity [5]: 22%
- % activity [6]: 124%
- % activity [7]: 49%
- % activity [8]: 76%

Sequence: KAFAKLAARLYRKALARQLGVAA [MMI-0400]
- % activity [9]: 97%
- % activity [1]: 75%
- % activity [2]: 61%
- % activity [3]: 185%
- % activity [4]: 90%
- % activity [5]: 21%
- % activity [6]: 131%
- % activity [8]: 84%

Sequence: YARAAARQARAKALARQLGVAA [MMI-0100]
- % activity [9]: 98%
- % activity [1]: 82%
- % activity [4]: 98%
- % activity [5]: 28%
- % activity [6]: 123%
- % activity [7]: 89%
- % activity [8]: 108%

Sequence: YARAAARQARAKALNRQLGVA (Mammal) [MMI-0200]
- % activity [1]: 100%
- % activity [5]: 53%
- % activity [6]: 132%
- % activity [7]: 131%
- % activity [8]: 76%
